Reference: paper PMC10773898, “Evidence of DISC1 as an arsenic binding protein and implications regarding its role as a translational activator” (Frontiers in Molecular Biosciences, 2023)

Biological target: the molecule itself
Assay: SEC; HiLoad 26/600 Superdex 200 pg; 50 mM Tris-HCl, 10 mM NaCl, pH 8.0; self-association of the purified construct

Protein	stoichiometry N	binding result
DISC1 C-terminal construct (598-854), WT (domain or fragment, human, UniProt Q9NRI5-1 598-854, looked up, Disrupted-in-schizophrenia-1 (DISC1), human, residues 598-854, with W602F and W752F so that W691 is the single tryptophan; In pET28b(+) as His-tag fusion; also called DISC1 598-854; C-terminal WT construct; source: E. coli BL21 (DE3), purified (Ni-NTA, SEC)) GNHFFTAKDLTEEIRSLTSEREGLEGLLSKLLVLSSRNVKKLGSVKEDYNRLRREVEHQETAYETSVKENTMKYMETLKNKLCSCKCPLLGKVWEADLEACRLLIQSLQLQEARGSLSVEDERQMDDLEGAAPPIPPRLHSEDKRKTPLKVLEEFKTHLIPSLHCAGGEQKEESYILSAELGEKCEDIGKKLLYLEDQLHTAIHSHDEDLIQSLRRELQMVKETLQAMILQLQPAKEAGEREAAASCMTAGVHEAQA	4	
DISC1 598-854 C682S/C684S/C698S/C762S/C782S/C844S (domain or fragment, human, UniProt Q9NRI5-1 598-854, looked up, DISC1, human, residues 598-854; source: E. coli BL21 (DE3), purified (Ni-NTA, SEC)) GNHFFTAKDLTEEIRSLTSEREGLEGLLSKLLVLSSRNVKKLGSVKEDYNRLRREVEHQETAYETSVKENTMKYMETLKNKLCSSKSPLLGKVWEADLEASRLLIQSLQLQEARGSLSVEDERQMDDLEGAAPPIPPRLHSEDKRKTPLKVLEEFKTHLIPSLHSAGGEQKEESYILSAELGEKSEDIGKKLLYLEDQLHTAIHSHDEDLIQSLRRELQMVKETLQAMILQLQPAKEAGEREAAASSMTAGVHEAQA		binds
DISC1 598-854 C684S/C698S/C762S/C782S/C844S (domain or fragment, human, UniProt Q9NRI5-1 598-854, looked up, DISC1, human, residues 598-854; source: E. coli BL21 (DE3), purified (Ni-NTA, SEC)) GNHFFTAKDLTEEIRSLTSEREGLEGLLSKLLVLSSRNVKKLGSVKEDYNRLRREVEHQETAYETSVKENTMKYMETLKNKLCSCKSPLLGKVWEADLEASRLLIQSLQLQEARGSLSVEDERQMDDLEGAAPPIPPRLHSEDKRKTPLKVLEEFKTHLIPSLHSAGGEQKEESYILSAELGEKSEDIGKKLLYLEDQLHTAIHSHDEDLIQSLRRELQMVKETLQAMILQLQPAKEAGEREAAASSMTAGVHEAQA		binds
DISC1 598-854 C680S/C682S/C698S/C762S/C782S/C844S (domain or fragment, human, UniProt Q9NRI5-1 598-854, looked up, DISC1, human, residues 598-854; source: E. coli BL21 (DE3), purified (Ni-NTA, SEC)) GNHFFTAKDLTEEIRSLTSEREGLEGLLSKLLVLSSRNVKKLGSVKEDYNRLRREVEHQETAYETSVKENTMKYMETLKNKLSSSKCPLLGKVWEADLEASRLLIQSLQLQEARGSLSVEDERQMDDLEGAAPPIPPRLHSEDKRKTPLKVLEEFKTHLIPSLHSAGGEQKEESYILSAELGEKSEDIGKKLLYLEDQLHTAIHSHDEDLIQSLRRELQMVKETLQAMILQLQPAKEAGEREAAASSMTAGVHEAQA		binds
DISC1 598-854 (C698S/C762S/C782S/C844S) (domain or fragment, human, UniProt Q9NRI5-1 598-854, looked up, DISC1, human, residues 598-854; also called WT*; pseudo-WT variant; source: E. coli BL21 (DE3), purified (Ni-NTA, SEC)) GNHFFTAKDLTEEIRSLTSEREGLEGLLSKLLVLSSRNVKKLGSVKEDYNRLRREVEHQETAYETSVKENTMKYMETLKNKLCSCKCPLLGKVWEADLEASRLLIQSLQLQEARGSLSVEDERQMDDLEGAAPPIPPRLHSEDKRKTPLKVLEEFKTHLIPSLHSAGGEQKEESYILSAELGEKSEDIGKKLLYLEDQLHTAIHSHDEDLIQSLRRELQMVKETLQAMILQLQPAKEAGEREAAASSMTAGVHEAQA		binds
DISC1 598-854 C680S/C682S/C684S/C698S/C762S/C782S/C844S (domain or fragment, human, UniProt Q9NRI5-1 598-854, looked up, DISC1, human, residues 598-854, all cysteines mutated to serine; also called C680S/C6802S/C684S*; C680S/C684S/C682S*; source: E. coli BL21 (DE3), purified (Ni-NTA, SEC)) GNHFFTAKDLTEEIRSLTSEREGLEGLLSKLLVLSSRNVKKLGSVKEDYNRLRREVEHQETAYETSVKENTMKYMETLKNKLSSSKSPLLGKVWEADLEASRLLIQSLQLQEARGSLSVEDERQMDDLEGAAPPIPPRLHSEDKRKTPLKVLEEFKTHLIPSLHSAGGEQKEESYILSAELGEKSEDIGKKLLYLEDQLHTAIHSHDEDLIQSLRRELQMVKETLQAMILQLQPAKEAGEREAAASSMTAGVHEAQA		binds
DISC1 598-854 C680S/C698S/C762S/C782S/C844S (domain or fragment, human, UniProt Q9NRI5-1 598-854, looked up, DISC1, human, residues 598-854; source: E. coli BL21 (DE3), purified (Ni-NTA, SEC)) GNHFFTAKDLTEEIRSLTSEREGLEGLLSKLLVLSSRNVKKLGSVKEDYNRLRREVEHQETAYETSVKENTMKYMETLKNKLSSCKCPLLGKVWEADLEASRLLIQSLQLQEARGSLSVEDERQMDDLEGAAPPIPPRLHSEDKRKTPLKVLEEFKTHLIPSLHSAGGEQKEESYILSAELGEKSEDIGKKLLYLEDQLHTAIHSHDEDLIQSLRRELQMVKETLQAMILQLQPAKEAGEREAAASSMTAGVHEAQA		binds
DISC1 598-854 C680S/C684S/C698S/C762S/C782S/C844S (domain or fragment, human, UniProt Q9NRI5-1 598-854, looked up, DISC1, human, residues 598-854; source: E. coli BL21 (DE3), purified (Ni-NTA, SEC)) GNHFFTAKDLTEEIRSLTSEREGLEGLLSKLLVLSSRNVKKLGSVKEDYNRLRREVEHQETAYETSVKENTMKYMETLKNKLSSCKSPLLGKVWEADLEASRLLIQSLQLQEARGSLSVEDERQMDDLEGAAPPIPPRLHSEDKRKTPLKVLEEFKTHLIPSLHSAGGEQKEESYILSAELGEKSEDIGKKLLYLEDQLHTAIHSHDEDLIQSLRRELQMVKETLQAMILQLQPAKEAGEREAAASSMTAGVHEAQA		binds
DISC1 598-854 C682S/C698S/C762S/C782S/C844S (domain or fragment, human, UniProt Q9NRI5-1 598-854, looked up, DISC1, human, residues 598-854; source: E. coli BL21 (DE3), purified (Ni-NTA, SEC)) GNHFFTAKDLTEEIRSLTSEREGLEGLLSKLLVLSSRNVKKLGSVKEDYNRLRREVEHQETAYETSVKENTMKYMETLKNKLCSSKCPLLGKVWEADLEASRLLIQSLQLQEARGSLSVEDERQMDDLEGAAPPIPPRLHSEDKRKTPLKVLEEFKTHLIPSLHSAGGEQKEESYILSAELGEKSEDIGKKLLYLEDQLHTAIHSHDEDLIQSLRRELQMVKETLQAMILQLQPAKEAGEREAAASSMTAGVHEAQA		binds
